# Experimental data: US20200085917A1
# Key:
# Assay in all cases: GST pull-down, LC-MS/MS
# [1] = biological target: Sfxn1_IPI:IPI00115454.3 (mouse) (UniProt Q99JR1)
# [2] = biological target: Hspa5_IPI:IPI00319992.1 (mouse) (UniProt P20029)
# [3] = biological target: Arf2_IPI:IPI00135730.1 (mouse) (UniProt Q8BSL7)
# [4] = biological target: Pycr2_IPI:IPI00123278.1 (mouse) (UniProt Q922Q4)
# [5] = biological target: Rab15_IPI:IPI00170032.1 (mouse) (UniProt Q8K386)
# [6] = biological target: Pptc7_IPI:IPI00421081.3 (mouse) (UniProt Q6NVE9)
# [7] = biological target: Mrpl43_IPI:IPI00278781.1 (mouse) (UniProt Q99N89)
# [8] = biological target: Rab2a_IPI:IPI00137227.1 (mouse) (UniProt P53994)
# [9] = biological target: Slc25a10_IPI:IPI00317074.3 (mouse) (UniProt Q9QZD8)
# [10] = biological target: Cplx1_IPI:IPI00132278.1 (mouse) (UniProt P63040)
# [11] = biological target: Snap25_IPI:IPI00125635.1 (mouse) (UniProt P60879)
# [12] = biological target: Gm6180_IPI:IPI00409405.2 (mouse)
# [13] = biological target: Dci_IPI:IPI00114416.1 (mouse) (UniProt P42125)
# [14] = biological target: Mrpl14_IPI:IPI00133778.1 (mouse) (UniProt Q9D1I6)
# [15] = biological target: Gstk1_IPI:IPI00121051.3 (mouse) (UniProt Q9DCM2)
# [16] = biological target: Hagh_IPI:IPI00115866.2 (mouse) (UniProt Q99KB8)
# [17] = biological target: Rtn1_IPI:IPI00395193.1 (mouse) (UniProt Q8K0T0)
# [18] = biological target: 1700020C11Rik_IPI:IPI00315908.1 (mouse)
# [19] = biological target: Asah1_IPI:IPI00125266.1 (mouse) (UniProt Q9WV54)
# [20] = biological target: Idh3g_IPI:IPI00109169.1 (mouse) (UniProt P70404)
# [21] = biological target: Coq3_IPI:IPI00467124.2 (mouse) (UniProt Q8BMS4)
# [22] = biological target: Fis1_IPI:IPI00132217.1 (mouse) (UniProt Q9CQ92)
# [23] = biological target: Letm1_IPI:IPI00131177.1 (mouse) (UniProt Q9Z2I0)
# [24] = biological target: Ociad2_IPI:IPI00112139.1 (mouse) (UniProt Q9D8W7)
# [25] = biological target: Chchd4_IPI:IPI00124389.1 (mouse) (UniProt Q8VEA4)
# [26] = biological target: Ppt1_IPI:IPI00331318.2 (mouse) (UniProt O88531)
# [27] = biological target: Rdh13_IPI:IPI00229040.1 (mouse) (UniProt Q8CEE7)
# [28] = biological target: Etfa_IPI:IPI00116753.4 (mouse) (UniProt Q99LC5)
# [29] = biological target: Dsp_IPI:IPI00553419.3 (mouse) (UniProt E9Q557)
# [30] = biological target: Prdx3_IPI:IPI00116192.1 (mouse) (UniProt P20108)
# [31] = biological target: Isca2_IPI:IPI00120671.2 (mouse) (UniProt Q9DCB8)
# [32] = biological target: Mpst_IPI:IPI00604945.2 (mouse) (UniProt Q99J99)
# [33] = biological target: Rhot1_IPI:IPI00123186.4 (mouse) (UniProt Q8BG51)
# Sequence of Rhot1_IPI:IPI00123186.4 (mouse) (Q8BG51 whole entry): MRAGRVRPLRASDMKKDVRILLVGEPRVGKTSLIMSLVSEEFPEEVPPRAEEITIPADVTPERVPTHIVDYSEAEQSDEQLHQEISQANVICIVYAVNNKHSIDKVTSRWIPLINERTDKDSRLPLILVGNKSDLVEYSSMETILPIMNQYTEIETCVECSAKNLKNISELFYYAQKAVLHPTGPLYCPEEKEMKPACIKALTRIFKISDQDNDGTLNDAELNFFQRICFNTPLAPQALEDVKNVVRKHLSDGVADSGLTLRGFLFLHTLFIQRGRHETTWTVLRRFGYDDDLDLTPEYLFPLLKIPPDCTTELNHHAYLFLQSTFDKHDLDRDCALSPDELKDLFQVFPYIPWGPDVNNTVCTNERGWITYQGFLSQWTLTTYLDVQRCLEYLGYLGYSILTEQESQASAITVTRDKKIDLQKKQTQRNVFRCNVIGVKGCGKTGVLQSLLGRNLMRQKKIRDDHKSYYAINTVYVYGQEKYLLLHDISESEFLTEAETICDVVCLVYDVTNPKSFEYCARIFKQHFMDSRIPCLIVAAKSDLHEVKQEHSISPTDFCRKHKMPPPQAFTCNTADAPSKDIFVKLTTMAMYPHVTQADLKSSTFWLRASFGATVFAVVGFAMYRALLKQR
# Sequence of Slc25a10_IPI:IPI00317074.3 (mouse) (Q9QZD8 whole entry): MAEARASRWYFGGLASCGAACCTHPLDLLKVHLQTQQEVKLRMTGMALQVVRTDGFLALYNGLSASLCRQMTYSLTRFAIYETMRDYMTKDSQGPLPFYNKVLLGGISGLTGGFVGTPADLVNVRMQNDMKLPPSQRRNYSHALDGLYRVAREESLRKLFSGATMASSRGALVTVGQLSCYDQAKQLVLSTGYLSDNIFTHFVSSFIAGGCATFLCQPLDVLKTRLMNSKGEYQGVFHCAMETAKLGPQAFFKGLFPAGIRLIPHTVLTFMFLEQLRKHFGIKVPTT
# Sequence of Pptc7_IPI:IPI00421081.3 (mouse) (Q6NVE9 75-310 limits assumed): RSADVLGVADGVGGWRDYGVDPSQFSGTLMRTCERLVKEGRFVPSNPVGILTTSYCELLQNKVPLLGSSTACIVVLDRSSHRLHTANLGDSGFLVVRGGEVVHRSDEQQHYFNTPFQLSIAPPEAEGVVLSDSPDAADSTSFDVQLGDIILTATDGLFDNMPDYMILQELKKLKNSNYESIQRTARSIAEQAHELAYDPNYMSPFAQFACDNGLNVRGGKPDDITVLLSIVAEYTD
# Sequence of 1700020C11Rik_IPI:IPI00315908.1 (mouse) (Q9CRB8 whole entry): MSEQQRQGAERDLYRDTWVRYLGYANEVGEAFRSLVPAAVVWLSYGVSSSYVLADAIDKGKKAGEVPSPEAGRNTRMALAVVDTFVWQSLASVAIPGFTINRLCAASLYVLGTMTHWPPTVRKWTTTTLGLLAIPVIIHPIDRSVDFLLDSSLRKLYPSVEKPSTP
# Sequence of Snap25_IPI:IPI00125635.1 (mouse) (P60879 whole entry): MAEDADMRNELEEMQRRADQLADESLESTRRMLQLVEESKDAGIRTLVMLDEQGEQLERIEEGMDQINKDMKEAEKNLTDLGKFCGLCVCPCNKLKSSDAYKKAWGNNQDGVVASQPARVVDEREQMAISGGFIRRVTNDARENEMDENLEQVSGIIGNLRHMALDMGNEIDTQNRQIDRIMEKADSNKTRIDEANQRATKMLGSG
# Sequence of Coq3_IPI:IPI00467124.2 (mouse) (Q8BMS4 87-370 limits assumed): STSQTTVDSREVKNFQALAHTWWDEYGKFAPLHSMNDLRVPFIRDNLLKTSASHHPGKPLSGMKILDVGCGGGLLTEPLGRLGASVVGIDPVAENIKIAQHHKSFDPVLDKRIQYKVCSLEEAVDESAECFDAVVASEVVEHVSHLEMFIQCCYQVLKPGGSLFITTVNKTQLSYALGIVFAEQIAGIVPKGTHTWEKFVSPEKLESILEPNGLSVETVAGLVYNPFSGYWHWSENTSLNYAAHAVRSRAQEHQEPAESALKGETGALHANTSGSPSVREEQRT
# Sequence of Ociad2_IPI:IPI00112139.1 (mouse) (Q9D8W7 whole entry): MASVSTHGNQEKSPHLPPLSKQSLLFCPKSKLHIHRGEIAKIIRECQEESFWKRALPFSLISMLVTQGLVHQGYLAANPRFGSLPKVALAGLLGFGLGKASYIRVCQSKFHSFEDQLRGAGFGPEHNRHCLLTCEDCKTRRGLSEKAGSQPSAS
# Sequence of Pycr2_IPI:IPI00123278.1 (mouse) (Q922Q4 2-320 limits assumed): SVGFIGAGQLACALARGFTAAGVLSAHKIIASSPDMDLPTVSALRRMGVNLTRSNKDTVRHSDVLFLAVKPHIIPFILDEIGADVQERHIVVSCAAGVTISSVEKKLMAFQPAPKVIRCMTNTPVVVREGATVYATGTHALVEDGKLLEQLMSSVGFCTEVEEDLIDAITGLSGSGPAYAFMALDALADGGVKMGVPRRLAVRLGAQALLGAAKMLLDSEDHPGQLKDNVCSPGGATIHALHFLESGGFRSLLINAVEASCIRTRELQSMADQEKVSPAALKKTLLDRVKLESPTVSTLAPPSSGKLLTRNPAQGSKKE
# Sequence of Dci_IPI:IPI00114416.1 (mouse) (P42125 29-289 limits assumed): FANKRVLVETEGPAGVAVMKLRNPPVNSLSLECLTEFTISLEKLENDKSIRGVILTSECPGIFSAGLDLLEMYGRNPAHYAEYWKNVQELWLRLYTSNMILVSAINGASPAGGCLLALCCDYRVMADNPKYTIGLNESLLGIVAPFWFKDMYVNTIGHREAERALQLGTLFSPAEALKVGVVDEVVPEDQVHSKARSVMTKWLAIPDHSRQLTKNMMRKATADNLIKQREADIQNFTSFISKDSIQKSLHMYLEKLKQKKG
# Sequence of Gstk1_IPI:IPI00121051.3 (mouse) (Q9DCM2 whole entry): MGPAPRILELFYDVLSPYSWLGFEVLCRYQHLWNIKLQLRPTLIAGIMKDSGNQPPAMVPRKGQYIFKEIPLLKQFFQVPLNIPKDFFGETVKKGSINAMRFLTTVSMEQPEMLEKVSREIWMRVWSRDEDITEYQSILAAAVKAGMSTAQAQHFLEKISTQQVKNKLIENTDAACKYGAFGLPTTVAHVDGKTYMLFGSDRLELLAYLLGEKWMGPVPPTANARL
# Sequence of Rtn1_IPI:IPI00395193.1 (mouse) (Q8K0T0 whole entry): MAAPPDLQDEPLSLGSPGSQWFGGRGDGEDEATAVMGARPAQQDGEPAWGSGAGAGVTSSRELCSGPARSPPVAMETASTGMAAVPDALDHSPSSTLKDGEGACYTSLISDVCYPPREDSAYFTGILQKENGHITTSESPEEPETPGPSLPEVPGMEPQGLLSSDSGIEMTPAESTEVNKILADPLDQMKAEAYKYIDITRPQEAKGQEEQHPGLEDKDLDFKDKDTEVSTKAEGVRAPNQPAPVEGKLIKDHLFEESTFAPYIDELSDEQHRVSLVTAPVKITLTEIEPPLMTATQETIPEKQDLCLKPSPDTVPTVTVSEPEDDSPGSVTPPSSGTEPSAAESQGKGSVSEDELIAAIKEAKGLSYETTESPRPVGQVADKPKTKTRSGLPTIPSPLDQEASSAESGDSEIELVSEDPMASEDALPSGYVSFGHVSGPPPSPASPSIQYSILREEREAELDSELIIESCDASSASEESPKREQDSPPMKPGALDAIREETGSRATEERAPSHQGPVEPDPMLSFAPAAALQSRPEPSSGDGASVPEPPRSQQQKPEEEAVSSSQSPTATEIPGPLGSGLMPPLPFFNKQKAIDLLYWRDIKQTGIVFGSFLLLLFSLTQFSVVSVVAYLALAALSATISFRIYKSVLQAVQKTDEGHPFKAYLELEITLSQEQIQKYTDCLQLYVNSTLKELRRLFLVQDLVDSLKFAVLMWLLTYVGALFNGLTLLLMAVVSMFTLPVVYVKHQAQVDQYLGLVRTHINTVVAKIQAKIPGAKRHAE
# Sequence of Isca2_IPI:IPI00120671.2 (mouse) (Q9DCB8 9-154 limits assumed): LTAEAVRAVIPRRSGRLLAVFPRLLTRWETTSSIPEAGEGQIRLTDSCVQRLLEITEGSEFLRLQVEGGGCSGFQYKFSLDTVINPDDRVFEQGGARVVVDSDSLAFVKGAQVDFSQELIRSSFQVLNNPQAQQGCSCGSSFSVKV
# Sequence of Idh3g_IPI:IPI00109169.1 (mouse) (P70404 40-393 limits assumed): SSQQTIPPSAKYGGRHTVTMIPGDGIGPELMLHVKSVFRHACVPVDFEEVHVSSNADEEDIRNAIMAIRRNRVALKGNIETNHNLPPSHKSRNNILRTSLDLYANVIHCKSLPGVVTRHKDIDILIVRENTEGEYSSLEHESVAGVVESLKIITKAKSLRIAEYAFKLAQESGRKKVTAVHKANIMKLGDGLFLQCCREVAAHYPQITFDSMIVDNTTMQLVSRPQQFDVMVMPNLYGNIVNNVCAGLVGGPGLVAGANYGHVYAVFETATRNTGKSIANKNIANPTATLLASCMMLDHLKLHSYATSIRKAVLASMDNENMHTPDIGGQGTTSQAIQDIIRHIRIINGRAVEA
# Sequence of Rab2a_IPI:IPI00137227.1 (mouse) (P53994 2-212 limits assumed): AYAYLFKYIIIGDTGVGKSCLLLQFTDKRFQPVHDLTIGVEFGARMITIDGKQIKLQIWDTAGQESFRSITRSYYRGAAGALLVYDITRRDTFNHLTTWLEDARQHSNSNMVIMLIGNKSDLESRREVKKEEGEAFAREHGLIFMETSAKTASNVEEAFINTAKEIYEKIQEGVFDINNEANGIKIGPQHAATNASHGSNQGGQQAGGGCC
# Sequence of Etfa_IPI:IPI00116753.4 (mouse) (Q99LC5 20-333 limits assumed): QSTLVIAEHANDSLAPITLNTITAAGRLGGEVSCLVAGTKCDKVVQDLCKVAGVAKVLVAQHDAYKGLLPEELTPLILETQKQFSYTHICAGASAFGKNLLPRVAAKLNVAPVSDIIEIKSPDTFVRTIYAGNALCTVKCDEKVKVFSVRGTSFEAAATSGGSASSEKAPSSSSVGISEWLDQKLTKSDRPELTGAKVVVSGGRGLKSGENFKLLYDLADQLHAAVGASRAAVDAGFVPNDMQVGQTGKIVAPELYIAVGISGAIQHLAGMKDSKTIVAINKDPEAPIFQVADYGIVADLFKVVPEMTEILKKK
# Sequence of GST-Httex1-97Q (P08515 1-218, tags or fused parts left off): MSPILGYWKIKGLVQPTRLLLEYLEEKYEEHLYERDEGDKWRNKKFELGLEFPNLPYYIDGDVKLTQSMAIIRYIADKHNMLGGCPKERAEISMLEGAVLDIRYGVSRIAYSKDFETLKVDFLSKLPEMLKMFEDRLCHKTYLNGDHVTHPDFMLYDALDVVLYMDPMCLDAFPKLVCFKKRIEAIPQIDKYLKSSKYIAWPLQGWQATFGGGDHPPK
substance,measurement,setting,value
GST-Httex1-97Q (from UniProt P08515 1-218; P42858 1-88),No. of total peptides,[1],2 peptides
same,No. of unique peptides,[1],2 peptides
same,No. of total peptides,[2],1 peptides
same,No. of unique peptides,[2],1 peptides
same,No. of total peptides,[3],3 peptides
same,No. of unique peptides,[3],3 peptides
same,No. of total peptides,[4],1 peptides
same,No. of unique peptides,[4],1 peptides
same,No. of total peptides,[5],1 peptides
same,No. of unique peptides,[5],1 peptides
same,No. of total peptides,[6],1 peptides
same,No. of unique peptides,[6],1 peptides
same,No. of total peptides,[7],1 peptides
same,No. of unique peptides,[7],1 peptides
same,No. of total peptides,[8],1 peptides
same,No. of unique peptides,[8],1 peptides
same,No. of total peptides,[9],1 peptides
same,No. of unique peptides,[9],1 peptides
same,No. of total peptides,[10],6 peptides
same,No. of unique peptides,[10],4 peptides
same,No. of total peptides,[11],1 peptides
same,No. of unique peptides,[11],1 peptides
same,No. of total peptides,[12],1 peptides
same,No. of unique peptides,[12],1 peptides
same,No. of total peptides,[13],7 peptides
same,No. of unique peptides,[13],6 peptides
same,No. of total peptides,[14],4 peptides
same,No. of unique peptides,[14],3 peptides
same,No. of total peptides,[15],1 peptides
same,No. of unique peptides,[15],1 peptides
same,No. of total peptides,[16],2 peptides
same,No. of unique peptides,[16],2 peptides
same,No. of total peptides,[17],1 peptides
same,No. of unique peptides,[17],1 peptides
same,No. of total peptides,[18],1 peptides
same,No. of unique peptides,[18],1 peptides
same,No. of total peptides,[19],3 peptides
same,No. of unique peptides,[19],3 peptides
same,No. of total peptides,[20],2 peptides
same,No. of unique peptides,[20],2 peptides
same,No. of total peptides,[21],2 peptides
same,No. of unique peptides,[21],1 peptides
same,No. of total peptides,[22],2 peptides
same,No. of unique peptides,[22],2 peptides
same,No. of total peptides,[23],4 peptides
same,No. of unique peptides,[23],4 peptides
same,No. of total peptides,[24],3 peptides
same,No. of unique peptides,[24],3 peptides
same,No. of total peptides,[25],1 peptides
same,No. of unique peptides,[25],1 peptides
same,No. of total peptides,[26],1 peptides
same,No. of unique peptides,[26],1 peptides
same,No. of total peptides,[27],1 peptides
same,No. of unique peptides,[27],1 peptides
same,No. of total peptides,[28],4 peptides
same,No. of unique peptides,[28],3 peptides
same,No. of total peptides,[29],4 peptides
same,No. of unique peptides,[29],4 peptides
same,No. of total peptides,[30],3 peptides
same,No. of unique peptides,[30],3 peptides
same,No. of total peptides,[31],3 peptides
same,No. of unique peptides,[31],3 peptides
same,No. of total peptides,[32],4 peptides
same,No. of unique peptides,[32],4 peptides
same,No. of total peptides,[33],1 peptides
same,No. of unique peptides,[33],1 peptides
